For the test, the target named is NADH-dependent methanol dehydrogenase (MeDH) from Bacillus methanolicus MGA3, internal laboratory designation 2315 (tested as purified 2315A) (Bacillus methanolicus MGA3). The test is described as follows: cell-based or functional assay.

In the case of “activator protein (ACT) from Bacillus methanolicus MGA3, internal laboratory designation 2317 (tested as purified 2317A) (enzyme)”, the ratio of ACT to MeDH in an in vitro methanol dehydrogenase activation test (5 M methanol, 2 mM NAD, 10 µM MeDH 2315A, pH 7.4) (ACT:MeDH ratio) is 10.
